Laboratory results reported in publication PMC5397206.

Biological target: Prp43 (yeast) (UniProt P53131)
UniProt P53131, sequence (P53131 whole entry): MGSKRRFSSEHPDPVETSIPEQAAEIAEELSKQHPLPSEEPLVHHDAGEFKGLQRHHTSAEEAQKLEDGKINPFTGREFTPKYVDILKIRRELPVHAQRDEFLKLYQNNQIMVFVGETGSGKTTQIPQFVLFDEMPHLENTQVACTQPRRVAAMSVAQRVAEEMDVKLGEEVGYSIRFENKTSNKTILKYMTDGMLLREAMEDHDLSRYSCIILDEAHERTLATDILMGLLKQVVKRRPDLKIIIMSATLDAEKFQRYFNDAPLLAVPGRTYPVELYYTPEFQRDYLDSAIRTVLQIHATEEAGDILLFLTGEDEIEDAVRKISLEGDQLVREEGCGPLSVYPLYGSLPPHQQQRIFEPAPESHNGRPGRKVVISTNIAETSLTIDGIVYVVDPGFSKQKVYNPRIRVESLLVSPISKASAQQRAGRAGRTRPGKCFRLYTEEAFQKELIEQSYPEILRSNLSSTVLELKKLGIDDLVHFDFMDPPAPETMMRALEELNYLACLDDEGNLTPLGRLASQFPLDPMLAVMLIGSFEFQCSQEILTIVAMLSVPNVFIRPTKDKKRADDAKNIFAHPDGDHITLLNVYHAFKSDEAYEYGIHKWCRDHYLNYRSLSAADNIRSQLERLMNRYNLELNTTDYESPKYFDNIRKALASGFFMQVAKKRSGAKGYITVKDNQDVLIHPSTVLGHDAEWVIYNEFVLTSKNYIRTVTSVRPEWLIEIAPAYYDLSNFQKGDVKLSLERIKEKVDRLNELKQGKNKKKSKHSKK

catalytic efficiency of Prp43 ATPase (kcat/KM), Pfa1FL versus Pfa1GP: 3 fold
B1: Pfa1 full-length (Pfa1FL) (natural protein)
chain: MAKRHSHYQGSRRRHARGSNSKKAGRGNAKGIQGRKIKKKPTPTNSWHNSSIPLGEGDLDDVGADFNPGRAFISPKTIEDYYFGRDAKSRSMKMGGLRPGNRYDSSTDLQAGRAAFRKRPMQFVKAKEVYDPSHNMIQKLRAKNETKNSEEIVEREADVFEEPGKMTSDVEYINNEDSENEDDDSQNSPSTDHSLSSNESKVEDGDLFFVDEEAQQSPDLTKIKRVCIEEIARPREVAIEFDPILTIGKVELSVSEGNESKEISVDVPNKGNKTYHPFAGYISNVLHGMHTSDSDNDELDYEIETENNSEPLYESSASSEVDQGFNYVGQRHNSRADNNLLPSPSPQLTEDIKCLSINGTKTFEGNNDNLPSPASEELEFGFKEEDFVINTNDIVVSNIRMGGVDNSYYLRCYRLLGDYDFHWIDQDLLTDFVVDELGLPEDRLPAYLNFIKNSLIPKIEPAEPTYSDIPISDSSDEGDSYEGDSYEDDEDMASSVVHSDIEEGLDDLIAYTLKHDTERFKTFETKSLETKGKGKKKKLLIDDALALDTETLETLQSKFSKRIETKAKKRKAKEDFIDQENRNSNDMLKKYPYGLHIQNIKDEFESFLSRNNDRLTFPPLDPHGNKTVMKIAKHYNMKSSKIGKANHTSVVVEKIKKTKWSSPNYSLIDQLMRQRPVFMRIDIRRPREEQAAFERTKTIRGKFHVKEGEIVGQNAPEIGNENIGRRMLEKLGWKSGEGLGIQGNKGISEPIFAKIKKNRSGLRHSES
